# Tests used:
# [1] = target: HTkC (TK1040), face-to-face (FtF) histone from Thermococcus kodakarensis (Thermococcus kodakarensis); assay: SEC-MALS
# [2] = target: HTkC R45A (Thermococcus kodakarensis); assay: SEC-MALS
stoichiometry N [1],stoichiometry N [2],Substance
4,,"HTkC (TK1040), face-to-face (FtF) histone from Thermococcus kodakarensis (natural protein)"
,2,HTkC R45A (natural protein)

# Source: publication doi:10.64898/2025.12.06.692711
